Reference: patent publication US20240350653A1 (JOINT STOCK COMPANY GENERIUM, published 2024)
Numbering of substitutions follows the chain as printed.

B1: HIR-FAB-IDS (SEQ ID NO: 2 and SEQ ID NO: 4) (Fab)
light: DIQMTQSPSSLSASLGERVSLTCRASQDIGGNLYWLQQGPDGTIKRLIYATSSLDSGVPKRFSGSRSGSDYSLTISSLESEDFVDYYCLQYSSSPWTFGGGTKMEIKRTVAAPSVFIFPPSDEQLKSGTASVVCLLNNFYPREAKVQWKVDNALQSGNSQESVTEQDSKDSTYSLSSTLTLSKADYEKHKVYACEVTHQGLSSPVTKSFNRGEC
heavy: QVQLQQSGPELVKPGALVKISCKASGYTFTNYDIHWVKQRPGQGLEWIGWIYPGDGSTKYNEKFKGKATLTADKSSSTAYMHLSSLTSEKSAVYFCAREWAYWGQGTLVTVSAASTKGPSVFPLAPSSKSTSGGTAALGCLVKDYFPEPVTVSWNSGALTSGVHTFPAVLQSSGLYSLSSVVTVPSSSLGTQTYICNVNHKPSNTKVDKKVEPKSCDKTHLSSSETQANSTTDALNVLLIIVDDLRPSLGCYGDKLVRSPNIDQLASHSLLFQNAFAQQAVCAPSRVSFLTGRRPDTTRLYDFNSYWRVHAGNFSTIPQYFKENGYVTMSVGKVFHPGISSNHTDDSPYSWSFPPYHPSSEKYENTKTCRGPDGELHANLLCPVDVLDVPEGTLPDKQSTEQAIQLLEKMKTSASPFFLAVGYHKPHIPFRYPKEFQKLYPLENITLAPDPEVPDGLPPVAYNPWMDIRQREDVQALNISVPYGPIPVDFQRKIRQSYFASVSYLDTQVGRLLSALDDLQLANSTIIAFTSDHGWALGEHGEWAKYSNFDVATHVPLIFYVPGRTASLPEAGEKLFPYLDPFDSASQLMEPGRQSMDLVELVSLFPTLAGLAGLQVPPRCPVPSFHVELCREGKNLLKHFRFRDLEEDPYLPGNPRELIAYSQYPRPSDIPQWNSDKPSLKDIKIMGYSIRTIDYRYTVWVGFNPDEFLANFSDIHAGELYFVDSDPLQDHNMYNDSQGGDLFQLLMP
notes: Fab fragment of an IgG1 antibody to the human insulin receptor, fused to iduronate-2-sulfatase; also called rIDS-FAB-HI; rHI-FAB-IDS
B2: HIR-FAB-IDS (SEQ ID NO: 2 and SEQ ID NO: 5) (Fab)
light: B1 light
heavy: QVQLQQSGPELVKPGALVKISCKASGYTFTNYDIHWVKQRPGQGLEWIGWIYPGDGSTKYNEKFKGKATLTADKSSSTAYMHLSSLTSEKSAVYFCAREWAYWGQGTLVTVSAASTKGPSVFPLAPSSKSTSGGTAALGCLVKDYFPEPVTVSWNSGALTSGVHTFPAVLQSSGLYSLSSVVTVPSSSLGTQTYICNVNHKPSNTKVDKKVEPKSCDKTHGGGGSGGGGSGGGGSSETQANSTTDALNVLLIIVDDLRPSLGCYGDKLVRSPNIDQLASHSLLFQNAFAQQAVCAPSRVSFLTGRRPDTTRLYDFNSYWRVHAGNFSTIPQYFKENGYVTMSVGKVFHPGISSNHTDDSPYSWSFPPYHPSSEKYENTKTCRGPDGELHANLLCPVDVLDVPEGTLPDKQSTEQAIQLLEKMKTSASPFFLAVGYHKPHIPFRYPKEFQKLYPLENITLAPDPEVPDGLPPVAYNPWMDIRQREDVQALNISVPYGPIPVDFQRKIRQSYFASVSYLDTQVGRLLSALDDLQLANSTIIAFTSDHGWALGEHGEWAKYSNFDVATHVPLIFYVPGRTASLPEAGEKLFPYLDPFDSASQLMEPGRQSMDLVELVSLFPTLAGLAGLQVPPRCPVPSFHVELCREGKNLLKHFRFRDLEEDPYLPGNPRELIAYSQYPRPSDIPQWNSDKPSLKDIKIMGYSIRTIDYRYTVWVGFNPDEFLANFSDIHAGELYFVDSDPLQDHNMYNDSQGGDLFQLLMP
notes: Variant of the Fab-iduronate-2-sulfatase fusion
B3: HIR-FAB-IDS (SEQ ID NO: 8 and SEQ ID NO: 12) (Fab)
light: DIQMTQSPSSLSASVGDRVTITCRASQDIGGNLYWYQQKPGKAPKLLIYATSSLDSGVPSRFSGSGSGTDFTLTISSLQPEDVATYYCLQYSSSPWTFGQGTKVEIKRTVAAPSVFIFPPSDEQLKSGTASVVCLLNNFYPREAKVQWKVDNALQSGNSQESVTEQDSKDSTYSLSSTLTLSKADYEKHKVYACEVTHQGLSSPVTKSFNRGEC
heavy: EVQLVESGGGLVQPGRSLRLSCAASGFTFTNYDIHWVRQAPGKGLEWVSWIYPGDGSTKYNEKFKGRFTISRDNAKNSLYLQMNSLRAEDTAVYYCAKEWAYWGQGTLVTVSSASTKGPSVFPLAPSSKSTSGGTAALGCLVKDYFPEPVTVSWNSGALTSGVHTFPAVLQSSGLYSLSSVVTVPSSSLGTQTYICNVNHKPSNTKVDKKVEPKSCDKTHLSSSETQANSTTDALNVLLIIVDDLRPSLGCYGDKLVRSPNIDQLASHSLLFQNAFAQQAVCAPSRVSFLTGRRPDTTRLYDFNSYWRVHAGNFSTIPQYFKENGYVTMSVGKVFHPGISSNHTDDSPYSWSFPPYHPSSEKYENTKTCRGPDGELHANLLCPVDVLDVPEGTLPDKQSTEQAIQLLEKMKTSASPFFLAVGYHKPHIPFRYPKEFQKLYPLENITLAPDPEVPDGLPPVAYNPWMDIRQREDVQALNISVPYGPIPVDFQRKIRQSYFASVSYLDTQVGRLLSALDDLQLANSTIIAFTSDHGWALGEHGEWAKYSNFDVATHVPLIFYVPGRTASLPEAGEKLFPYLDPFDSASQLMEPGRQSMDLVELVSLFPTLAGLAGLQVPPRCPVPSFHVELCREGKNLLKHFRFRDLEEDPYLPGNPRELIAYSQYPRPSDIPQWNSDKPSLKDIKIMGYSIRTIDYRYTVWVGFNPDEFLANFSDIHAGELYFVDSDPLQDHNMYNDSQGGDLFQLLMP
notes: as for B2
B4: HIR-FAB-IDS (SEQ ID NO: 10 and SEQ ID NO: 14) (Fab)
light: B3 light with M4L, L46V, V83F
heavy: EVQLVESGGGLVQPGGSLRLSCAASGYDFTNYDIHWVRQAPGKGLEWVGWIYPGDGSTKYNEKFKGRFTFSLDTSKSTAYLQMNSLRAEDTAVYYCAKEWAYWGQGTLVTVSSASTKGPSVFPLAPSSKSTSGGTAALGCLVKDYFPEPVTVSWNSGALTSGVHTFPAVLQSSGLYSLSSVVTVPSSSLGTQTYICNVNHKPSNTKVDKKVEPKSCDKTHLSSSETQANSTTDALNVLLIIVDDLRPSLGCYGDKLVRSPNIDQLASHSLLFQNAFAQQAVCAPSRVSFLTGRRPDTTRLYDFNSYWRVHAGNFSTIPQYFKENGYVTMSVGKVFHPGISSNHTDDSPYSWSFPPYHPSSEKYENTKTCRGPDGELHANLLCPVDVLDVPEGTLPDKQSTEQAIQLLEKMKTSASPFFLAVGYHKPHIPFRYPKEFQKLYPLENITLAPDPEVPDGLPPVAYNPWMDIRQREDVQALNISVPYGPIPVDFQRKIRQSYFASVSYLDTQVGRLLSALDDLQLANSTIIAFTSDHGWALGEHGEWAKYSNFDVATHVPLIFYVPGRTASLPEAGEKLFPYLDPFDSASQLMEPGRQSMDLVELVSLFPTLAGLAGLQVPPRCPVPSFHVELCREGKNLLKHFRFRDLEEDPYLPGNPRELIAYSQYPRPSDIPQWNSDKPSLKDIKIMGYSIRTIDYRYTVWVGFNPDEFLANFSDIHAGELYFVDSDPLQDHNMYNDSQGGDLFQLLMP
notes: as for B2
B5: HIR-FAB-IDS (SEQ ID NO: 11 and SEQ ID NO: 15) (Fab)
light: EIVLTQSPATLSLSPGERATLSCRASQDIGGNLYWYQQKPGQAPRLLIYATSSLDSGIPARFSGSGSGTDFTLTISSLEPEDFAVYYCLQYSSSPWTFGQGTRLEIKRTVAAPSVFIFPPSDEQLKSGTASVVCLLNNFYPREAKVQWKVDNALQSGNSQESVTEQDSKDSTYSLSSTLTLSKADYEKHKVYACEVTHQGLSSPVTKSFNRGEC
heavy: B3 heavy with T30N, N77K, V93L, L108T, S127G, K129S, S130K, T131S, S132T, G133S
notes: as for B2
B6: HIR-FAB-IDS (SEQ ID NO: 9 and SEQ ID NO: 13) (Fab)
light: EIVLTQSPDFQSVTPKEKVTITCRASQDIGGNLYWYQQKPDQSPKLLIKATSSLDSGVPSRFSGSGSGTDFTLTINSLEAEDAAAYYCLQYSSSPWTFGPGTKVDIKRTVAAPSVFIFPPSDEQLKSGTASVVCLLNNFYPREAKVQWKVDNALQSGNSQESVTEQDSKDSTYSLSSTLTLSKADYEKHKVYACEVTHQGLSSPVTKSFNRGEC
heavy: B3 heavy with E1Q, L11V, T30S, S49A, A75S, S78T, S85G, K98R, K210R
notes: as for B2

Tests used:
[1] = target: Human Insulin Receptor protein fragment (Abcam cat #ab200510) (human) (UniProt P06213); assay: ELISA on human insulin receptor fragment, relative to 83-14 mAb
[2] = target: Human Insulin Receptor protein fragment (Abcam cat #ab200510) (human) (UniProt P06213); assay: ELISA on human insulin receptor fragment
[3] = target: mouse insulin receptor (mInsR, R&D Systems, Inc., Cat. No. 7544-MR) (mouse) (UniProt P15208); assay: ELISA on mouse insulin receptor
[4] = target: T1, Human Insulin Receptor protein fragment (Abcam cat #ab200510) (human, UniProt P06213-2 28-944, limits assumed); assay: ELISA on human insulin receptor fragment, relative to 83-14 mAb
T1 construct: domain: extracellular domain of the alpha subunit; Bought fragment; also called HIR; extracellular domain of the alpha subunit of the human insulin receptor

[5] = target: T1, Human Insulin Receptor protein fragment …; assay: ELISA on human insulin receptor fragment
[6] = target: T2, mouse insulin receptor (mInsR, R&D Systems, Inc., Cat. No. 7544-MR) (mouse, UniProt P15208 28-946, limits assumed); assay: ELISA on mouse insulin receptor
T2 construct: extracellular domain; Bought protein; also called extracellular domain of the mouse insulin receptor

Molecule	Receptor binding from antibody 83-14 mAb, % [1]	EC50 [2]	EC50 [3]	Receptor binding from antibody 83-14 mAb, % [4]	EC50 [5]	EC50 [6]	Receptor binding, % [6]
Mouse Anti-Human Insulin Receptor Clone 83-14 mAb (Cell sciences, cat# MAI1) (antibody)	100%	0.0331 µg/mL	> 0.8 µg/mL				
INSR/Insulin Receptor alpha Antibody 83-14 (Life technologies, cat#AHR0221)	102%	0.0321 µg/mL	> 0.8 µg/mL				
HIR-MAB-IDS (antibody)	126%	0.0262 µg/mL	> 0.8 µg/mL				
B1				136%	0.0243 µg/mL	> 0.8 µg/mL	0%
B2				66%	0.0503 µg/mL	> 0.8 µg/mL	0%
B3				27%	0.121 µg/mL	> 0.8 µg/mL	0%
B4				94%	0.0351 µg/mL	> 0.8 µg/mL	0%
B5				21%	0.156 µg/mL	> 0.8 µg/mL	0%
B6				55%	0.0604 µg/mL	> 0.8 µg/mL	0%
